Source: the nanobody polyreactivity screen of Harvey et al. (2022)

Experiment: yeast display, Sf9 membrane polyspecificity reagent, FACS + sequencing; frameworks hold sequencing errors
In short: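 After 36–48 hours of galactose induction, yeast (Saccharomyces cerevisiae BJ5465) displaying a synthetic nanobody library were stained at 4 °C for 1 hour with 10% biotinylated, detergent-solubilized Sf9 membrane reagent. Streptavidin microbeads enriched the stained cells before FACS sorting into low and high (top ~1%) gates on anti-HA and streptavidin fluorescence. Each clone's polyreactivity label reflects its gate of origin.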

Sequence	polyreactivity (PSR sort gate)
QVQLVESGGGLVQAGGSLRLSCAASGNIFDTYVMGWYRQAPGKERELVAAITSDGGTYYADSVKGRFTIARDNAKNTVYLQMNSLKPEDTAVYYCAADTYYYPIQDYWGQGTQVTVSS	low polyreactivity
QVQLVESGGGLVQAGGSLRLSCAASGNIFETNAMGWYRQAPGKERELVAAITRSGGSTYYADSVKGRFTISRDNAKNTVYLQMNSLKPEDTAVYYCAYYPYGYDYWGQGTQVTVSS	high polyreactivity
QVQLVESGGGLVQAGGSLRLSCAASGNIFETNAMGWYRQAPVKERELVAAISASGGSTYYADSVKGRFTISRDNAKNNVYLQMNSLKPEDTAVYYCNDRVDSYYGDAFDYWGQGTQVTVSS	high polyreactivity
QVQLVESGGGLVQAGGSLRLSCAASGNIFFGYAMGWYRQAPGKEREFVASITKIGGSTYYADSVQGRFTISRDNAKNTVYLQMNSLKPEHTAVYYCAKTILYDCDYWGQGTQVTVSS	low polyreactivity
QVQLVESGGGLVQAGGSLRLSCAASGNIFGHYAMGWYRQAPGKERELVAAISSRGGRTYYADSVKGRFTISRDNAKNTVYLQMNSLKPEDTAVYYCAHKTRQKFGYWGQGTQVTVSS	high polyreactivity
QVQLVESGGGLVQAGGSLRLSCAASGNIFGRYAMGWYRQAPGKERELVAAISSGDITYYADSVKGRFTISRDNAKNTVYLQMNSLKPEDTAVYYCAADSYWSVVYIKYDYWGQGTQVTVSS	low polyreactivity
QVQLVESGGGLVQAGGSLRLSCAASGNIFGWYAMGWYRQAPGKERELVAAISSGGRTNYADSVKGRFTISRDNAKNTVYLQMNSLKPEDTAVYYCAVGLHKRPPPPRFRQYNYWGQGTQVTVSS	low polyreactivity
QVQLVESGGGLVQAGGSLRLSCAASGNIFHDNAMGWYRQAPGKERELVAAISDSGGSTYYADSVKGRFTISRDTAKNTVYLQMNSLKPEDTAVYYCDSGRTYYAPYQWWYDYWGQGTQVTVSS	high polyreactivity
QVQLVESGGGLVQAGGSLRLSCAASGNIFIRYAMGWYRQAPGKERELVAAISQSGGGTSYADSVKGRFRISRDNAKNTVYLQMNSLKPEDTAVSYCNVEKVGHFNSYGYDYWGQGTQVTVSS	low polyreactivity
QVQLVESGGGLVQAGGSLRLSCAASGNIFKQYTMGWYRQAPGKERELVAAIRSRGGSTYYADSVKGRLTISRDNAKNTVYLQMNSLKPEDTAVYYCAKVLGRTTLRMDYWGQGPQVTVSS	high polyreactivity
QVQLVESGGGLVQAGGSLRLSCAASGNIFLSYAMGWYRQAPGKERDLVAGISASGGRTYYADSVKGRFTISRDNAKNTVYFQMNSLKPEDTALYYCNAGWGVVIRRYPTYDYWGQGTQVTVSS	high polyreactivity
QVQLVESGGGLVQAGGSLRLSCAASGNIFLYYAMGWYRQAPGKERELVADIDSSGASTYYADSVKGRFTISRDNAKNTVYLQMNSLKPEDTAVYNCAARAERVREYNYWGQGTQVTVSS	low polyreactivity
QVQLVESGGGLVQAGGSLRLSCAASGNIFNEYARGWYSQAPGKESELVAAITWSAGSTYYADSVKGRFTISRDNAKNTVYLQMNSVKPEDTGVYYCNTQEKANTQHYYWGQGTQVTVSS	low polyreactivity
QVQLVESGGGLVQAGGSLRLSCAASGNIFPPNTMGWDRQAPGKDRELVAAISSRGSRTYYADSVKGRFTISRDNAKNTVYLQMNSLKPEDTAVYYCAAQQWQGGYLYDYWGQGTQVTVSS	high polyreactivity
QVQLVESGGGLVQAGGSLRLSCAASGNIFQGNAMGWYRQAPGKERELVAAITSDGSTYADSVKGRFTISRDNAKNTVYLQLNSLKPEDTAVYYCNADGITSLPVPALDYWGQGTQATVSS	low polyreactivity
QVQLVESGGGLVQAGGSLRLSCAASGNIFQGNAMGWYRQAPGKERELVAAITSDGSTYADSVKGRFTISRDNAKNTVYLQMNSLKPEETAVYYCNADCITSLPVPALDYWGQGTQVTVSS	low polyreactivity
QVQLVESGGGLVQAGGSLRLSCAASGNIFQRYAMGWYRQAPGKVRELVAAISGNGGNSFYADSVKGRFTISRDNAKYTVYLQMNSLKPEDTAVYYCNTVYVVYGFDYWGQGTQVTVSS	high polyreactivity
